Columns and labels:
[1] = target: T1, bait vector (empty pBI-880, GAL4 (1-147) alone) (UniProt P04386 1-147); experiment: yeast two-hybrid, K-box prey with empty bait
T1 construct: range 1-147; Negative control: bait vector without insert; also called empty bait
Source text: Previous studies have shown that the MADS-domain and I regions may be important for homodimer formation by AG and by AP1 (Krizek and Meyerowitz, 1996; Mizukami et al., 1996; Riechmann et al., 1996) and that the I region and K-domain are needed for the formation of AP3/PI heterodimers (Krizek and Meyerowitz, Proc. Natl. Acad. Sci. USA 93, 4063-4070 (1996); Riechmann et al., Proc. Natl. Acad. Sci. USA 93, 4793-4798 (1996)). In addition, the K-domain of AG is sufficient to promote interactions with SEP1, SEP2, SEP3 and AGL6 in yeast (Fan et al., Plant J. 11, 999-1010 (1997)). Since many of the CAL- and AP1-interacting clones isolated as part of our study lacked the MADS-domain and I regions, we tested if the K-domain itself was sufficient to promote the observed interactions. First, we subcloned the K-box regions of SEP3, SOC1, SVP and AGL24 into the prey vector, and tested their ability to activate the reporter using either the empty bait or the cruciferin gene cloned into the bait plasmid. […] However, other protein domains appear to enhance these interactions since the level of reporter gene activation is higher when larger constructs are used.

[2] = target: T2, CAL bait (GAL4 (1-147) fused to the intact CAL coding region in pBI-880) (Arabidopsis thaliana); experiment: yeast two-hybrid with CAL bait
T2 construct: range 1-147; also called CAULIFLOWER; full-length CAL cDNA as bait
Source text: To confirm the specificity of these interactions, the longest clone of each class was transformed back into yeast with the AP1 bait, the bait vector, and an inert control bait, cruciferin. The strains containing the AP1 bait tested positive for both β-Gal activity and HIS prototrophy. The strains containing the bait vector or the cruciferin bait were negative in both assays. We then tested if the three new AP1-interacting clones could also interact with CAL, since they had not been isolated in the CAL library screen. However, AGL27, the RNA binding protein, and the novel protein were unable to interact with CAL in yeast.

[3] = target: T1, bait vector (empty pBI-880, GAL4 …); experiment: yeast two-hybrid retest, B-Gal and HIS prototrophy
Source text: To confirm the specificity of the observed interactions, the longest and shortest clone of each class was transformed back into a yeast strain that contained either the CAL bait, the bait vector, or an inert control bait, cruciferin. The strains containing the CAL bait tested positive for both B-Gal activity and HIS prototrophy. The strains containing the bait vector or the cruciferin bait were negative in both assays, as they were not able to grow on plates lacking histidine and the yeast colonies were completely white in the B-Gal assay.

B1: SOC1K (K-box region of SOC1 in prey vector pBI771) (other, not shown: small tags and cut ends)
chain: MKYEAANMMKKIEQLEASKRKLLGEGIGTCSIEELQQIEQQLEKSVKCIRARKTQVFKEQIEQLKQKE
notes: also called SOC1 K-box; K-box prey construct
B1: no binding [1].

B2: SVPK (K-box region of SVP in prey vector pBI771) (other, not shown: small tags and cut ends)
chain: MSDHARMSKEIADKSHRLRQMRGEELQGLDIEELQQLEKALETGLTRVIETKSDKIMSEISELQKKG
notes: also called SVP K-box; K-box prey construct
B2: no binding [1].

B3: AGL27 clone isolated in the AP1 two-hybrid screen (one clone) (other)
chain: MGRRKIEIKRIENKSSRQVTFSKRRNGLIDKARQLSILCESSVAVVVVSASGKLYDSSSGDDISKIIDRYEIQHADELRALDLEEKIQNYLPHKELLETVQSKLEEPNVDNVSVDSLISLEEQLETALSVSRARKAELMMEYIESLKEKEKLLREENQVLASQLSEKKGMSHR
notes: also called new MADS box gene designated AGL27; not shown: fusion partner encoded by prey vector pBI771
B3: no binding [2].

B4: AGL24K (K-box region of AGL24 in prey vector pBI771) (other, not shown: small tags and cut ends)
chain: MLENCNLSRLSKEVEDKTKQLRKLRGEDLDGLNLEELQRLEKLLESGLSRVSEKKGECVMSQIFSLE
notes: also called AGL24 K-box; K-box prey construct
B4: no binding [1].

B5: shortest AGL24 clone from the CAL two-hybrid screen (other)
chain: EVEDKTKQLRKLRGEDLDGLNLEELQRLEKLLESGLSRVSEKKGECVMSQIFSLEKRGSELVDENKRLRDKLETLERAKLTTLKEALETESVTTNVSSYDSGTPLEDDSDTSLKLGLPSWE
notes: Lacks the MADS domain and I region; also called shortest clone of each class; shortest clones isolated in the screen; not shown: fusion partner encoded by prey vector pBI771
B5: no binding [3].

B6: SEP3K (K-box region of SEP3 in prey vector pBI771) (other)
chain: SQQEYLKLKERYDALQRTQRNLLGEDLGPLSTKELESLERQLDSSLKQIRALRTQFMLDQLNDLQSK
notes: also called SEP3 K-box; K-box prey construct; not shown: fusion partner encoded by prey vector pBI771
B6: no binding [1].
